From patent US20250186602A1, “HUMANIZED ANTIBODY THAT BONDS TO EVA1 PROTEIN OR FUNCTIONAL FRAGMENT THEREOF, ANTIBODY-DRUG CONJUGATE AND CHIMERIC ANTIGEN RECEPTOR” (CURED INC., priority 2022, published 2025)

T1: hEva1-mouse Fc (human, UniProt O60487 27-154, limits assumed)
T1 construct: SPR analyte; the '1' is probably the first concentration (1 nM); also called hEva1-mouse Fc1 (so in the source); not shown: mouse Fc
T1 sequence: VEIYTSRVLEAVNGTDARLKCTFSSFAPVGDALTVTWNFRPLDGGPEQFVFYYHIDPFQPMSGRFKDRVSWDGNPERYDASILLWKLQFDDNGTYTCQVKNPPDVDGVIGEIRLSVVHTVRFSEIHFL


These molecules were tested on hEva1-mouse Fc (assay: Surface plasmon resonance kinetics analysis (BiaCore T200, single-cycle)). Conditions: SPR, antibody captured 5 nM, analyte hEva1-mouse Fc 1-250 nM, HBS-EP+ pH 7.4.
Format: binding, human
Protocol: (§1) The dissociation constants and association constants of the humanized antibodies and the like were analyzed by using surface plasmon resonance (SPR, product name: BiaCore T200 (manufactured by GE healthcare)).
Specifically, first, human IgG capture antibodies were immobilized on a CM5 chip by an amine coupling method. This immobilization was conducted in both reference cells and active cells. Then, the kinetics analysis on the anti-Eval antibody and hEva1 was conducted by a single-cycle method using the following measurement conditions.
• Sample compartment temperature: 10° C. • Running buffer: HBS-EP+buffer, pH 7.4 • Capturing molecule: Human IgG antibody, reference & active cells • Ligand: Various antibodies 5 nM, active cells only • Analyte: hEva1-mouse Fc1, 5, 25, 125, 250 nM, reference & active cells • Regeneration buffer: 3M MgCl2, reference & active cells • 3 cycles of Blanks (Analyte zero concentration)

kd [s⁻¹] | Molecule | ka [M⁻¹ s⁻¹]
0.008858 | H2-L3: humanized B2E5-48 IgG1, VH H2 (SEQ ID NO: 13), VL L3 (SEQ ID NO: 10) (antibody, V domains shown, Variable Region of Heavy Chain 2 (Humanized B2E5-48); Variable Region of Light Chain 3 (Humanized B2E5-48)) VH: QVQLVQSGAEVKKPGASVKVSCKASGYTFTNYWMHWVRQAPGQGLEWMGEINPTNGGTDYNEKFQGRVTMTVDKSTSTAYMELSSLRSEDTAVYYCTIYTTALDYWGQGTLVTVSS VL: QIQLTQSPSFLSASVGDRVTITCRASSSVGYMYWYQQKPGKAPKPLIYVTSNLASGVPSRFSGSGSGTEYTLTISSLQPEDFATYYCQQWSSNPPTFGQGTKLEIK | 20710
0.009313 | H1-L4: humanized B2E5-48 IgG1, VH H1 (SEQ ID NO: 15), VL L4 (SEQ ID NO: 8) (antibody, V domains shown, Variable Region of Heavy Chain 1 (Humanized B2E5-48); Variable Region of Light Chain 4 (Humanized B2E5-48)) VH: QVQLVQSGAEVKKPGASVKVSCKASGYTFTNYWMHWVRQAPGQGLEWIGEINPTNGGTDYNEKFQGRVTLTVDKSSSTAYMELSSLRSEDTAVYYCTIYTTALDYWGQGTLVTVSS VL: DIQLTQSPSFLSASVGDRVTITCRASSSVGYMYWYQQKPGKAPKPLIYVTSNLASGVPSRFSGSGSGTEYTLTISSLQPEDFATYYCQQWSSNPPTFGQGTKLEIK | 17470
0.009101 | H2-L4: humanized B2E5-48 IgG1, VH H2 (SEQ ID NO: 13), VL L4 (SEQ ID NO: 8) (antibody, V domains shown, Variable Region of Heavy Chain 2 (Humanized B2E5-48); Variable Region of Light Chain 4 (Humanized B2E5-48)) VH: QVQLVQSGAEVKKPGASVKVSCKASGYTFTNYWMHWVRQAPGQGLEWMGEINPTNGGTDYNEKFQGRVTMTVDKSTSTAYMELSSLRSEDTAVYYCTIYTTALDYWGQGTLVTVSS VL: DIQLTQSPSFLSASVGDRVTITCRASSSVGYMYWYQQKPGKAPKPLIYVTSNLASGVPSRFSGSGSGTEYTLTISSLQPEDFATYYCQQWSSNPPTFGQGTKLEIK | 17200
0.0132 | H3-L2: humanized B2E5-48 IgG1, VH H3 (SEQ ID NO: 16), VL L2 (SEQ ID NO: 7) (antibody, V domains shown, Variable Region of Heavy Chain 3 (Humanized B2E5-48); Variable Region of Light Chain 2 (Humanized B2E5-48)) VH: QVQLVQSGSELKKPGASVKVSCKASGYTFTNYWMHWVRQAPGQGLEWIGEINPTNGGTDYNEGFTGRFVLSVDKSSSTAYLQISSLKAEDTAVYYCTIYTTALDYWGQGTLVTVSS VL: EIVLTQSPATLSLSPGERATLSCRASSSVGYMYWYQQKPGQAPRPLIYVTSNRATGIPARFSGSGSGTDYTLTISSLEPEDFAVYYCQQWSSNPPTFGQGTKLEIK | 16770
0.01253 | H3-L3: humanized B2E5-48 IgG1, VH H3 (SEQ ID NO: 16), VL L3 (SEQ ID NO: 10) (antibody, V domains shown, Variable Region of Heavy Chain 3 (Humanized B2E5-48); Variable Region of Light Chain 3 (Humanized B2E5-48)) VH: QVQLVQSGSELKKPGASVKVSCKASGYTFTNYWMHWVRQAPGQGLEWIGEINPTNGGTDYNEGFTGRFVLSVDKSSSTAYLQISSLKAEDTAVYYCTIYTTALDYWGQGTLVTVSS VL: QIQLTQSPSFLSASVGDRVTITCRASSSVGYMYWYQQKPGKAPKPLIYVTSNLASGVPSRFSGSGSGTEYTLTISSLQPEDFATYYCQQWSSNPPTFGQGTKLEIK | 15010

Each molecule was assayed against T1, hEva1-mouse Fc (assay: SPR (BiaCore T200), single-cycle kinetics; antibody captured by anti-human IgG on CM5 chip, hEva1-mouse Fc as analyte). Conditions: not given.
Protocol: as §1
Specifically, first, human IgG capture antibodies were immobilized on a CM5 chip by an amine coupling method. […] Then, the kinetics analysis on the anti-Eval antibody and hEva1 was conducted by a single-cycle method using the following measurement conditions.

Molecule | Kd [nM] | koff [s⁻¹] | kon [M⁻¹ s⁻¹]
humanized B2E5-48 antibody H3-L2 (antibody, human IgG1, V domains shown, Human IgG1 heavy chain and human kappa light chain vectors; made in HEK293T cells) VH: QVQLVQSGSELKKPGASVKVSCKASGYTFTNYWMHWVRQAPGQGLEWIGEINPTNGGTDYNEGFTGRFVLSVDKSSSTAYLQISSLKAEDTAVYYCTIYTTALDYWGQGTLVTVSS VL: EIVLTQSPATLSLSPGERATLSCRASSSVGYMYWYQQKPGQAPRPLIYVTSNRATGIPARFSGSGSGTDYTLTISSLEPEDFAVYYCQQWSSNPPTFGQGTKLEIK | 787 | 0.0132 | 16800
humanized B2E5-48 antibody H3-L4 (antibody, human IgG1, V domains shown, Human IgG1 heavy chain and human kappa light chain vectors; made in HEK293T cells) VH: QVQLVQSGSELKKPGASVKVSCKASGYTFTNYWMHWVRQAPGQGLEWIGEINPTNGGTDYNEGFTGRFVLSVDKSSSTAYLQISSLKAEDTAVYYCTIYTTALDYWGQGTLVTVSS VL: DIQLTQSPSFLSASVGDRVTITCRASSSVGYMYWYQQKPGKAPKPLIYVTSNLASGVPSRFSGSGSGTEYTLTISSLQPEDFATYYCQQWSSNPPTFGQGTKLEIK | 873 | 0.0138 | 15800

Further lines, results first:

Kd [nM] | koff [s⁻¹] | kon [M⁻¹ s⁻¹] | Molecule
467 | 0.0092 | 19700 | humanized B2E5-48 antibody H2-L2 (antibody, human IgG1, V domains shown, Human IgG1 heavy chain and human kappa light chain vectors; made in HEK293T cells; also called B2E5-H2-L2) VH: QVQLVQSGAEVKKPGASVKVSCKASGYTFTNYWMHWVRQAPGQGLEWMGEINPTNGGTDYNEKFQGRVTMTVDKSTSTAYMELSSLRSEDTAVYYCTIYTTALDYWGQGTLVTVSS VL: EIVLTQSPATLSLSPGERATLSCRASSSVGYMYWYQQKPGQAPRPLIYVTSNRATGIPARFSGSGSGTDYTLTISSLEPEDFAVYYCQQWSSNPPTFGQGTKLEIK
428 | 0.00886 | 20700 | humanized B2E5-48 antibody H2-L3 (antibody, human IgG1, V domains shown, Human IgG1 heavy chain and human kappa light chain vectors; made in HEK293T cells) VH: QVQLVQSGAEVKKPGASVKVSCKASGYTFTNYWMHWVRQAPGQGLEWMGEINPTNGGTDYNEKFQGRVTMTVDKSTSTAYMELSSLRSEDTAVYYCTIYTTALDYWGQGTLVTVSS VL: QIQLTQSPSFLSASVGDRVTITCRASSSVGYMYWYQQKPGKAPKPLIYVTSNLASGVPSRFSGSGSGTEYTLTISSLQPEDFATYYCQQWSSNPPTFGQGTKLEIK
529 | 0.0091 | 17200 | humanized B2E5-48 antibody H2-L4 (antibody, human IgG1, V domains shown, Human IgG1 heavy chain and human kappa light chain vectors; made in HEK293T cells) VH: QVQLVQSGAEVKKPGASVKVSCKASGYTFTNYWMHWVRQAPGQGLEWMGEINPTNGGTDYNEKFQGRVTMTVDKSTSTAYMELSSLRSEDTAVYYCTIYTTALDYWGQGTLVTVSS VL: DIQLTQSPSFLSASVGDRVTITCRASSSVGYMYWYQQKPGKAPKPLIYVTSNLASGVPSRFSGSGSGTEYTLTISSLQPEDFATYYCQQWSSNPPTFGQGTKLEIK
768 | 0.0146 | 19000 | humanized B2E5-48 antibody H4-L2 (antibody, human IgG1, V domains shown, Human IgG1 heavy chain and human kappa light chain vectors; made in HEK293T cells) VH: QVQLVQSGSELKKPGASVKVSCKASGYTFTNYWMHWVRQAPGQGLEWMGEINPTNGGTDYNEGFTGRFVFSVDKSVSTAYLQISSLKAEDTAVYYCTIYTTALDYWGQGTLVTVSS VL: EIVLTQSPATLSLSPGERATLSCRASSSVGYMYWYQQKPGQAPRPLIYVTSNRATGIPARFSGSGSGTDYTLTISSLEPEDFAVYYCQQWSSNPPTFGQGTKLEIK
835 | 0.0125 | 15000 | humanized B2E5-48 antibody H3-L3 (antibody, human IgG1, V domains shown, Human IgG1 heavy chain and human kappa light chain vectors; made in HEK293T cells) VH: QVQLVQSGSELKKPGASVKVSCKASGYTFTNYWMHWVRQAPGQGLEWIGEINPTNGGTDYNEGFTGRFVLSVDKSSSTAYLQISSLKAEDTAVYYCTIYTTALDYWGQGTLVTVSS VL: QIQLTQSPSFLSASVGDRVTITCRASSSVGYMYWYQQKPGKAPKPLIYVTSNLASGVPSRFSGSGSGTEYTLTISSLQPEDFATYYCQQWSSNPPTFGQGTKLEIK
994 | 0.0152 | 15300 | humanized B2E5-48 antibody H4-L4 (antibody, human IgG1, V domains shown, Human IgG1 heavy chain and human kappa light chain vectors; made in HEK293T cells) VH: QVQLVQSGSELKKPGASVKVSCKASGYTFTNYWMHWVRQAPGQGLEWMGEINPTNGGTDYNEGFTGRFVFSVDKSVSTAYLQISSLKAEDTAVYYCTIYTTALDYWGQGTLVTVSS VL: DIQLTQSPSFLSASVGDRVTITCRASSSVGYMYWYQQKPGKAPKPLIYVTSNLASGVPSRFSGSGSGTEYTLTISSLQPEDFATYYCQQWSSNPPTFGQGTKLEIK
877 | 0.0136 | 15500 | humanized B2E5-48 antibody H4-L3 (antibody, human IgG1, V domains shown, Human IgG1 heavy chain and human kappa light chain vectors; made in HEK293T cells) VH: QVQLVQSGSELKKPGASVKVSCKASGYTFTNYWMHWVRQAPGQGLEWMGEINPTNGGTDYNEGFTGRFVFSVDKSVSTAYLQISSLKAEDTAVYYCTIYTTALDYWGQGTLVTVSS VL: QIQLTQSPSFLSASVGDRVTITCRASSSVGYMYWYQQKPGKAPKPLIYVTSNLASGVPSRFSGSGSGTEYTLTISSLQPEDFATYYCQQWSSNPPTFGQGTKLEIK
533 | 0.00931 | 17500 | humanized B2E5-48 antibody H1-L4 (antibody, human IgG1, V domains shown, Human IgG1 heavy chain and human kappa light chain vectors; made in HEK293T cells) VH: QVQLVQSGAEVKKPGASVKVSCKASGYTFTNYWMHWVRQAPGQGLEWIGEINPTNGGTDYNEKFQGRVTLTVDKSSSTAYMELSSLRSEDTAVYYCTIYTTALDYWGQGTLVTVSS VL: DIQLTQSPSFLSASVGDRVTITCRASSSVGYMYWYQQKPGKAPKPLIYVTSNLASGVPSRFSGSGSGTEYTLTISSLQPEDFATYYCQQWSSNPPTFGQGTKLEIK
